According to the DeepSol protein solubility set:

Assay: soluble on expression in E. coli; label from the status in PepcDB or PDB records

Sequence | soluble on expression in E. coli
MSLSDDIKVLGISGSLRSGSYNSAALQEAIGLVPPGMSIELADISGIPLYNEDVYALGFPPAVERFREQIRAADALLFATPEYNYSMAGVLKNAIDWASRPPEQPFSGKPAAILGASAGRFGTARAQYHLRQTLVFLDVHPLNKPEVMISSAQNAFDAQGRLLDDKARELIQQQLQALQLWVREGGSHHHHHH | soluble
MSLSDLDRAIAQLRACRLIPEAQVRELCYKARELLIEEGNVVCVDAPVTICGDIHGQFHDLMELFRVGGDVPDTNYLFMGDFVDRGFYSLESEGHHHHHH | not soluble
MSLSELHALLTFPERPISQSYYVPKLQHFLKSGIPATYTLEQVAAFEHEEKNRNGDKEFRESTDDNKTSNTTPLHVLARSLPLDIKDEELQVVMDMMNILFEYGAGWNFIDYEDKTVGDLFLERNQSRESPLYRRLVEAGVSAELLLRKLNGGDVEFLDTDELIGIEPEESVQTAVDGQKEESVGSDDDATAANQQVYLKTELEYKDDALITKENKDGVMMDWETKIMELASETLFPDPEATNSATILNIGFGMGIIDTFIQARKPYRHYICEAHPDVLAKMKMDGWYEKDNVVILEGRWQDTLNNLLDKGEVFFDGIYYDTFSEHYQDILDLYDVVVGLIKPEGVFSFFNGLGADRSLCYDVYKEIVEIDVATYGMKCDYTRYSLDEQLPDWNDVKRSYFNCNYYYHPRITFAEGHHHHHH | not soluble
MSLSFDFSPDFNPLAARMRPASVEEYIGQSHLLGEGKPLRQALLAGKVHSMLLWGPPGTGKTTLAELVARYANAHVERISAVTSGVKEIRAAIEQAKNVAQSRGQRTLLFVDEVHRFNKSQQDAFLPFIEDGTVIFIGATTENPSFEVNNALLSRCRVYLIKRLEDDAIGQILAQANSDEARGLGKRGLLLKAELKSAIARLCDGDARKALNLLELMSDLLPDGGEYNLELLSEVAGHQAAGYDKNGDQYYDLISAVHKSIRGSAPDAALYWFCRILEGGGDPLYVARRLLAIASEDIGNADPNAMTVALNAWDCFHRVGPAEGERAIAQAVIYLASAPKSNAVYTAFKAARVLARETGNAPVPNHLRNAPTKLMSELGVGEGYRYAHDEDGAFAAGENYFPEVLQHSRIYQPTARGFEKRIRDKLAHLDALNQQSEGHHHHHH | soluble
MSLSFTVAVKEEILGQHHLSRHELSAIIKMSGSIGLSTSGLTLSVVTENAKLARHLYESFLHFYEIKSEIRHHQRSNLRKNRVYTVFTDEKVQDLLSDLHLADSFFGLETGIDEAILSDEEAGRAYLCGAFLANGSIRDPESGKYQLEISSVYLDHAQGIASLLQQFLLDAKVLERKKGAVTYLQRAEDIMDFLIVIGAMQARDDFERVKILRETRNDLNRANNAETANIARTVSASMKTINNISKIKDIMGLENLPVDLQEVAQLRIQHPDYSIQQLADSLSTPLTKSGVNHRLRKINKIADELEGHHHHHH | soluble
MSLSGFDADAIDRTTAADLAEVGSDKWTRYPGCIGAFIAEMDYGLAPCIQQAIDSACDHCKLGYIPEPWKRRVAEACAGWQKSHYGWDVDPDIIRVVPDVLEAYEIFLRELVGAGNAVVVPTPAYMPFLSVPKLYDVDVIEIEMLQGTDETTGEREWLFDFNAIERAFAAGCHAFVLCNPHNPIGKVLTLAEEQRLCELAERYDVRIFNDEIHAPFVFEGRHIPYPTISKAAARQSMTATSASKSFNIPGTKCAQVLLTNPADREMWAERAEWSEHQTATIGAIATTTAYNEGDPWFQDALSYVRRNLGLFDKQMRTRFSGVGYIRPRGTYIAWLDFGPLGIDDPAAYFLEKAKVALTDGRSCGRAGAGCVRVNMAMPYPLLVDCLNRMHDALQADGEGHHHHHH | soluble
MSLSGKNNIELDSWKKAINVISKNMDNGRIGIVQGPPGTGKTTIYANAFSRYFDKLGDGNIIVYIAPTNELVYDMFKKVGSEYAKRGAIDRISHEVRVYGSIFDQDPSIRSIREPPSMETKIVLMTNYQRLYPGNNRFNYNVMIDEASKSPLHTAFIGLANQLAKDELDGSISIVGDPMQAISLGPYQGSARRMLIMSYLLAPMLNHSSRDLNDRELLAEAKRSAIRGSSFEFLEVTLRMPSPSEEAISKGFYDNDLRAYRSASQILHSNYEANKLRELATEKEQMRKITEKVEELISTGRCILYERVNEKKSYDSNYYRKYGLTYDPTRAELGIETAIALAAGTGKHTTVITTYVDQQIQMDLLMRRKYGYILEKYGIRDQISFSTTQSFLGAEDDNIVAVLGKEYSISTYTQNYSTSTYNEGDPSTIYFNEPEVLNVQLSRHKMLLAIIGNLSILASQAAEGHHHHHH | not soluble
